Columns and labels:
Experiment in all cases: holdup assay
Design in all cases: key: below the threshold = too weak to quantify, mostly under pKd 3.1 to 4
Conditions in all cases: plain residues with an end cap or a label only (N-terminal biotin on a linker: ado-ado)
[1] = target: T1, APBA1_1, Q02410
T1 sequence (Q02410 651-752, limits assumed, looked up): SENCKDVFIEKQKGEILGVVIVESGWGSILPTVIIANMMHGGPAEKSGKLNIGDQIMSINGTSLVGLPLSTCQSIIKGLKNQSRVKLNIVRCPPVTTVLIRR

[2] = target: T2, APBA1_2, Q02410
T2 sequence (Q02410 742-832, limits assumed, looked up): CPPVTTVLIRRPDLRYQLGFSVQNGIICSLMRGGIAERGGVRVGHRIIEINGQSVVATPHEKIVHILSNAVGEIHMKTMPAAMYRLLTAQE

[3] = target: T3, APBA2_1, Q99767
T3 sequence (Q99767 563-664, limits assumed, looked up): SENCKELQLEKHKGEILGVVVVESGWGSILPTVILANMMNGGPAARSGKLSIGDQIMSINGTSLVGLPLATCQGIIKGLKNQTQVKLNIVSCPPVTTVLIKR

[4] = target: T4, APBA3_1, O96018
T4 sequence (O96018 389-490, limits assumed, looked up): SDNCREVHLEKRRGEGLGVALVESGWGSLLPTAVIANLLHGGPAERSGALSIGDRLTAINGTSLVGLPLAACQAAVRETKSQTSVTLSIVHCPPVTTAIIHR

[5] = target: T5, DFNB31_1, Q9P202
T5 sequence (Q9P202 135-233, limits assumed, looked up): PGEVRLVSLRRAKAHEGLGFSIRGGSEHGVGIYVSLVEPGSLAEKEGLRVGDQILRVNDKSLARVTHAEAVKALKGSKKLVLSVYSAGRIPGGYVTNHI

[6] = target: DLG1_1, Q12959
[7] = target: DLG1_2, Q12959
[8] = target: DLG1_3, Q12959
[9] = target: DLG2_3, Q15700
[10] = target: T6, FRMPD1, Q5SYB0
T6 sequence (Q5SYB0 52-145, limits assumed, looked up): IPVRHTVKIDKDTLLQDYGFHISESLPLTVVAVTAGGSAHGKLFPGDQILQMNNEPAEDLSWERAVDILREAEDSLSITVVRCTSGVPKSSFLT

[11] = target: FRMPD3, Q5JV73
[12] = target: FRMPD4, Q14CM0
[13] = target: GRID2IP_1, A4D2P6
[14] = target: T7, GRIP1_7, Q9Y3R0
T7 sequence (Q9Y3R0 999-1096, limits assumed, looked up): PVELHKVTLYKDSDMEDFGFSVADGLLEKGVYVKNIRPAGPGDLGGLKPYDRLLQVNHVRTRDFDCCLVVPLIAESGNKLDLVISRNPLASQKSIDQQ

[15] = target: GRIP2_7, Q9C0E4
[16] = target: HTRA2, O43464
[17] = target: IL16_4, Q14005
[18] = target: Inadl_2, Q8NI35
[19] = target: Inadl_5, Q8NI35
[20] = target: T8, LRRC7, Q96NW7
T8 sequence (Q96NW7 1440-1537, limits assumed, looked up): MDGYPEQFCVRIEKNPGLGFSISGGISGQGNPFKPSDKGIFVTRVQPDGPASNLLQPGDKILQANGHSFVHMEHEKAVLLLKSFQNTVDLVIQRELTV

[21] = target: MAGI2_2, Q86UL8
[22] = target: MAGI2_3, Q86UL8
[23] = target: T9, NHERF3_1, Q5T2W1
T9 sequence (Q5T2W1 4-100, limits assumed, looked up): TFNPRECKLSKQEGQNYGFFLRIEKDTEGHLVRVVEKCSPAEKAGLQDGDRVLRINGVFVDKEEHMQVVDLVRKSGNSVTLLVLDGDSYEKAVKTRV

[24] = target: T10, NHERF3_3, Q5T2W1
T10 sequence (Q5T2W1 238-333, limits assumed, looked up): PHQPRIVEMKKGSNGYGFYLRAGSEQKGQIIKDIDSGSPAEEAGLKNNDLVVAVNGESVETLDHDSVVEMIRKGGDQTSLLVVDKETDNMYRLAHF

[25] = target: T11, NHERF3_4, Q5T2W1
T11 sequence (Q5T2W1 373-468, limits assumed, looked up): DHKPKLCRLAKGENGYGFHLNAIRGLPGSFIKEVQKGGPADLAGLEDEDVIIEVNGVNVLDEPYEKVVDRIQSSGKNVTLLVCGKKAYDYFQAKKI

[26] = target: T12, PTPN13_1, Q12923
T12 sequence (Q12923 1088-1188, limits assumed, looked up): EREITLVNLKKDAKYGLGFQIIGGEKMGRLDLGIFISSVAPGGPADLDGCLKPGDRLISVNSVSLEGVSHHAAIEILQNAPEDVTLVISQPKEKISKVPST

GRID2IP_1, A4D2P6, sequence (A4D2P6 1-87): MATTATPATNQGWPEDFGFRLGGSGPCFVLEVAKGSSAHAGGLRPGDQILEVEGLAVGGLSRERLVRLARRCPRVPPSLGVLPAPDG
Inadl_2, Q8NI35, sequence (Q8NI35 238-335): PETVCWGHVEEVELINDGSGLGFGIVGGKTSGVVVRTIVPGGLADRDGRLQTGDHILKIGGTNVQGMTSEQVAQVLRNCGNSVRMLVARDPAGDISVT
FRMPD4, Q14CM0, sequence (Q14CM0 67-160): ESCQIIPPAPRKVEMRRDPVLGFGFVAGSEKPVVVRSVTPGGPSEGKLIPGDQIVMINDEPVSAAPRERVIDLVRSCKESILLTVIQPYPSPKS
MAGI2_3, Q86UL8, sequence (Q86UL8 600-682): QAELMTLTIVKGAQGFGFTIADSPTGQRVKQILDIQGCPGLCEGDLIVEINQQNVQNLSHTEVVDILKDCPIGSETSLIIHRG
MAGI2_2, Q86UL8, sequence (Q86UL8 410-522): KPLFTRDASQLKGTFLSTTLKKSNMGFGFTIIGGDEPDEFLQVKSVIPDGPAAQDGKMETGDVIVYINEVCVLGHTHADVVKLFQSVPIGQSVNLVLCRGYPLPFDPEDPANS
IL16_4, Q14005, sequence (Q14005 1229-1329): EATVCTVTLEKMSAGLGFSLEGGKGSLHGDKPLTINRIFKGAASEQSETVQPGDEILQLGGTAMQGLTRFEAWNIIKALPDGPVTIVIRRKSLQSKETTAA
Inadl_5, Q8NI35, sequence (Q8NI35 673-780): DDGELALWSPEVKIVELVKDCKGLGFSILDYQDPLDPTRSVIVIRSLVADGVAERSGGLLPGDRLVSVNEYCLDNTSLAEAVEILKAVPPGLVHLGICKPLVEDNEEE
GRIP2_7, Q9C0E4, sequence (Q9C0E4 934-1023): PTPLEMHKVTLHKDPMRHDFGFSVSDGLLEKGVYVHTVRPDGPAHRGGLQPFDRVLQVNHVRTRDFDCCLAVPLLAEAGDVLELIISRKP
HTRA2, O43464, sequence (O43464 355-458): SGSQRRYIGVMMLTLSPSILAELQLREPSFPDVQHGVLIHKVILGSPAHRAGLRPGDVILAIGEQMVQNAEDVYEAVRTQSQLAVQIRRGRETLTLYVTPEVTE
FRMPD3, Q5JV73, sequence (Q5JV73 12-100): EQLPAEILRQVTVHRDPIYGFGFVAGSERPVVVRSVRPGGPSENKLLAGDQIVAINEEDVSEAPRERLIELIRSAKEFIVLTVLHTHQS

Row | Binder | pKd [1] | pKd [2] | pKd [3] | pKd [4] | pKd [5] | pKd [6] | pKd [7] | pKd [8] | pKd [9] | pKd [10] | pKd [11] | pKd [12] | pKd [13] | pKd [14] | pKd [15] | pKd [16] | pKd [17] | pKd [18] | pKd [19] | pKd [20] | also measured
1 | TKGPRGPTRV [SAPCD1, Q5SSQ6] | below the threshold | 4.47 | below the threshold | below the threshold | 3.52 | 4.38 | 4.68 | 4.31 | 4.55 | below the threshold | below the threshold | below the threshold | below the threshold | below the threshold | below the threshold | below the threshold | below the threshold | below the threshold | 3.61 | below the threshold | pKd [21]: 5.42; pKd [22]: 4.69; pKd [23]: below the threshold; pKd [24]: below the threshold; pKd [25]: below the threshold; pKd [26]: below the threshold
2 | SGSLKLMTTV [DACT1, Q9NYF0] | below the threshold | 3.5 | below the threshold | below the threshold | 3.56 | 4.92 | 5.54 | 3.55 | 4.4 | below the threshold | below the threshold | below the threshold | below the threshold | below the threshold | below the threshold | below the threshold | below the threshold | below the threshold | below the threshold | below the threshold | pKd [21]: 5.28; pKd [22]: below the threshold; pKd [23]: below the threshold; pKd [24]: below the threshold; pKd [25]: below the threshold; pKd [26]: below the threshold
3 | QGPVETESVV [SLC45A4, Q5BKX6] | below the threshold | 3.79 | below the threshold | below the threshold | 3.66 | 4.19 | 4.69 | below the threshold | below the threshold | below the threshold | 3.5 | below the threshold | below the threshold | below the threshold | below the threshold | below the threshold | below the threshold | below the threshold | 3.54 | 3.73 | pKd [21]: 3.78; pKd [22]: 3.65; pKd [23]: 4.01; pKd [24]: below the threshold; pKd [25]: below the threshold; pKd [26]: below the threshold
4 | SNAGNTATKA [NOSTRIN, Q8IVI9] | below the threshold | below the threshold | below the threshold | below the threshold | below the threshold | below the threshold | below the threshold | below the threshold | 3.6 | below the threshold | below the threshold | below the threshold | below the threshold | below the threshold | below the threshold | below the threshold | below the threshold | below the threshold | below the threshold | below the threshold | pKd [21]: 3.56; pKd [22]: below the threshold; pKd [23]: below the threshold; pKd [24]: below the threshold; pKd [25]: below the threshold; pKd [26]: below the threshold
